Measurements: article PMC5422739

Columns and labels:
[1] = molecular target: tag-free LigB12 mutant E1088A (L. interrogans serovar Pomona); experiment: ELISA; tag-free LigB12 wild type or point mutants coated (1 μM/well); His tagged HTE20 or HTE20N titrated 0 to 10 μM; anti-His detection
[2] = molecular target: tag-free LigB12 mutant D1061N (L. interrogans serovar Pomona); experiment: as above
[3] = molecular target: tag-free LigB12 mutant D1066A (L. interrogans serovar Pomona); experiment: as above
[4] = molecular target: tag-free LigB12 mutant F1054A (L. interrogans serovar Pomona); experiment: as above
[5] = molecular target: LigB12-5-12 chimera (L. interrogans serovar Pomona); experiment: ELISA; tag-free LigB5/LigB12 and LigB7/LigB10 chimeras and wild-type domains coated (1 μM/well); 5 μM histidine tagged HTE17-20, HTE20 or HTE20N applied; anti-His detection
[6] = molecular target: LigB12-12-5 chimera (L. interrogans serovar Pomona); experiment: as above
[7] = molecular target: tag free LigB12 (amino acids 1,047–1,119 in LigB) (L. interrogans serovar Pomona); experiment: other fluorescence titration; intrinsic tryptophan fluorescence of LigB12 (2 μM), excitation 295 nm, read at 315 nm, 25°C, PBS; HTE20 or HTE20N titrated 10 to 0.625 μM
[8] = molecular target: tag free LigB12 (amino acids 1,047–1,119 in LigB) (L. interrogans serovar Pomona); experiment: SPR; Biacore 3000; tag free LigB12 immobilised on CM5 (about 1,000 RU); HTE truncates 0 to 5 μM injected in PBS at 30 μL/min, 25°C; 1:1 Langmuir model
[9] = molecular target: LigA on the surface of L. biflexa serovar Patoc ligA
[10] = molecular target: GST tagged LigB12 (amino acids 1,047–1,119 in LigB) (L. interrogans serovar Pomona); experiment: ELISA; competitive; 5 μM GST-LigB4 or GST-LigB12 pre-incubated 1 h with HTE17-20, HTE20N or HTE20C (10 to 0.156 μM), then added to WI-38 cell monolayers at 37°C; HRP anti-GST
[11] = molecular target: GST tagged LigB4 (amino acids 307–403 in LigB) (L. interrogans serovar Pomona); experiment: as above

B1: histidine tagged HTE20 (domain or fragment)
chain: GIPGAAVPGVVSPEAAAKAAAKAAKYGARPGVGVGGIPTYGVGAGGFPGFGVGVG
- Kd [1]: 870 nM
- percent of wild-type LigB12 binding [2]: 32%
- percent of wild-type LigB12 binding [3]: 26%
- percent of wild-type LigB12 binding [4]: 15%
- percent of wild-type LigB12 binding [5]: 80%
- percent of wild-type LigB12 binding [6]: 90%

B2: HTE20 (20th exon of human tropoelastin) (domain or fragment)
chain: B1 chain
- Kd [7]: 970 nM
- Kd [8]: 940 nM
- koff [8]: 0.0032 s⁻¹
- kon [8]: 3400 M⁻¹ s⁻¹

B3: histidine tagged HTE20N (domain or fragment)
chain: GIPGAAVPGVVSPEAAAKAAAKAAKYG
- Kd [1]: 870 nM
- percent of wild-type LigB12 binding [2]: 32%
- percent of wild-type LigB12 binding [3]: 26%
- percent of wild-type LigB12 binding [4]: 15%
- percent of wild-type LigB12 binding [5]: 80%
- percent of wild-type LigB12 binding [6]: 90%

B4: HTE20N (the first 27 residues of HTE20, amino acids 358–384 of HTE) (domain or fragment)
chain: GIPGAAVPGVVSPEAAAKAAAKAAKYG
- Kd [7]: 820 nM
- inhibition of the adhesion of LigA-expressing L. biflexa (Patoc ligA) to WI-38 cells after pre-incubation with HTE20N, 10 to 0.156 μM; ELISA with hamster anti-L. biflexa sera [9]: 58%
- Kd [8]: 780 nM
- koff [8]: 0.0021 s⁻¹
- kon [8]: 2700 M⁻¹ s⁻¹
- percent decrease of LigB12 binding to WI-38 cells at the highest concentration [10]: 51%
- percent decrease of LigB4 binding to WI-38 cells at the highest concentration [11]: 54%
